Among the data in PMC8974011 are stoichiometry N values, retold here.

This assay deals with T1, endogenous STAT1 of HeLa cells (human (endogenous in HeLa)), P42224.
T1 chain: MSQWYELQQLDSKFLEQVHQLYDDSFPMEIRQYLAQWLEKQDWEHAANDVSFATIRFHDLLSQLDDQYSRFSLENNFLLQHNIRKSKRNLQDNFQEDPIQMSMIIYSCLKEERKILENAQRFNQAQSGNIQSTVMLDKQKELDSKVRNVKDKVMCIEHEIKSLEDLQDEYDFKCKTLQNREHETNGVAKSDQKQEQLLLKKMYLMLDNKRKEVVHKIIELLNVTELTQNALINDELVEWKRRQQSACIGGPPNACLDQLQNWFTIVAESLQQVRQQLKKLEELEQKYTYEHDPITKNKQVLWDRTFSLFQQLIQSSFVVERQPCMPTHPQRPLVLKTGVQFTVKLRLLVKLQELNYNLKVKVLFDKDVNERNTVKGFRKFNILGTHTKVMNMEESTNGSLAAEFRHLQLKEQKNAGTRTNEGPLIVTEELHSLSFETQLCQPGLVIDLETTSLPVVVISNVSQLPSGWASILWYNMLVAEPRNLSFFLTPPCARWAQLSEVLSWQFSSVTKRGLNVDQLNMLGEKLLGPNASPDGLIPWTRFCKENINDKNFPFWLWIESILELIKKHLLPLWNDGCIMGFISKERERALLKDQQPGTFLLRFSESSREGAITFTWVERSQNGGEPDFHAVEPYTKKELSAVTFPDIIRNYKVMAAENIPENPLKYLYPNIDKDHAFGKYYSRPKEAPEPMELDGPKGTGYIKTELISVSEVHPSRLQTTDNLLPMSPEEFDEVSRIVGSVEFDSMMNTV
Nature of the assay: native gel or EMSA; extracts of IFNγ-stimulated HeLa cells incubated with [33P]-labelled 2xGAS duplex DNA (two tandem GAS sites); super-shift with STAT1 antibody; competition with 750-fold molar excess of unlabelled M67 DNA; 4.8% acrylamide gel at 4 °C; only DNA-bound complexes are seen. As to conditions: remark: other sources report otherwise.

B1: endogenous STAT1 of HeLa cells, P42224 1-750 (natural protein)
chain: T1 chain
modifications: here or on the partner: phospho-tyrosine 701 (P-STAT1, IFNγ-stimulated cells); phospho-tyrosine 701 (P-STAT1, IFNγ-stimulated cells)
As usually defined, the stoichiometry N is the number of molecules, sites or subunits per partner or assembly. In the case of B1, the stoichiometry N is 4.
